Laboratory results from the DeepSol protein solubility set.

test: soluble on expression in E. coli; label from the status in PepcDB or PDB records

Row | Sequence | soluble on expression in E. coli
1 | MANHPRAGQPAQQSDLINVAQLTSQYYVLQPDAEDPAHAVKFGTSGHRGSSVRHSFNEAHILAIAQAIAEVRHQHGISGPCYVGKDTHALSEPAFISVLEVLTANGVDVVVQQDNGFTPTPAISHVILCHNAQGKALADGIVITPSHNPPEDGGIKYNPPNGGPADTNLTSVIEKRANQLLSQNLKGVKRQTLDKAWQSNHLREQDLLQPYVEGLVDVVDIPAIQQAGLKLGVDPLGGSGIAYWQRIAEYYKLDLTLVNNAIDQTFRFMHLDHDGVIRMDCSSESAMAGLLALRDKFDLAFANDPDYDRHGIVTPAGLMNPNHYLAVSINYLFQHRPQWGAGVAVGKTLVSSAMIDRVVADLGRKLVEVPVGFKWFVDGLHDGSFGFGGEESAGASFLRFNGTPWSTDKDGIIMCLLAAEITAVTGKDPQRHYDDLAQRFGAPSYNRIQAPATQAQKNALSRLSPEMVKANTLAGDPITARLTNAPGNGASIGGLKVMTENGWFAARPSGTEEAYKIYCESFLGAEHREKIEQEAVKIVSEVLAEAK | not soluble
2 | MARMKARSAKGKRVAKDTWKSKVWYDIYTPQSFGGDVIGQTPANDPANLIGRISEISLRDLTNEHSKHMTRMYFKVDGVSGNNATSQFVGHDTTREYLKSQVRRRRSKINAIVEVRTKDGFKVRVKALVLTAVRARDHHKTEIRVRMEQIIKEMAKETPFAEFVHAMLMGGLGSKIYGDCKKMFPLKRVEIFKSEVIEFGKAAEAPVEEAAAEEVVEEAAAETQELEHHHHHH | soluble
3 | MGSDKIHHHHHHMMGKTEYLDYYSGKRVLVTGGAGAVGSNLVRRLLDLGAFVIVIDNLSSGYTWLLPQDAPNLLFIEGDITNDVDLKRVFNEEPEIIFHLAAFFANQNSVDYPEKDLWVNGFGTLKLLEYTRIYGKVERFVYASSGCSIYPSDAPMPFKEDLPISSWMSTPYQITKALGELYCNYFYKMYDIPITKARFFNSFGPGEVPGQYRNVIPNFIYWAMLGKPLPITGTGEETRDFTYVGDIVDGLLRMGYYREAIGEAFNLAAGREVKIKYLAEKVNELTGNTAGIVFKPRRKWDTKPRMLASNEKAKKVLGFNPDPDFDGRLAETVEWFKQNWELIKKSAEFGPGVSSAVR | not soluble
4 | MSADNLLLDFTSPGAIPPDPAEVVRRVVDETQTTMRALESLLENERIEDMTGWRLLAMFYLATDRLNDLAKIEKQYKSITGVSLSADLKQKYPQWFNGEAVSHPVVFEIPKKITAAALPDSIIIQRGQCSPGGILLDFSQVQEIDNDGLKKLAQLFSSLAQENTRPKLRQADRFITCLQNKAETGTGTRAIWDVLFAYERFRDDREAFEEKAIKFAVLYGISPPSWE | not soluble
5 | MNHVSHTGSYYAASANDKVQRSKLTEDITADICVVGSGFTGLSSALHLAEKGFKVVVVEGSRIGFGASGRNGGQLVNSYSRDMDFIERNYGKHVSTEMGQMAFEGSRIIKRLINDYDIKCDLRPGGVFAACNSKQLDEMAEKQKLWAKHGYHETELLSASDIQNHVGTERYVGGLLDKAGGHIHPLNLALGEAAAFEKLGGIIYEDSIVVDIVHGKKAVIKTDSGSVTADFVVVAGNAYLEGLLPKQQKQSMPCGTQIITTEVLPEAMQKQLLPTDVCVEDCNYLLDYFRLSGDGRLIYGGGTTYGAREPSKIESIIIPKMLKTFPQLKDVKIDYAWTGNFLLTLMRLPQFGRINDNVYYAQGYSGHGVTSTHLAGKVIADAITGQAERFDVFAGLPQYPFPGGRLFKTPYTAMGAWYYQMRDKLGILEHHHHHH | soluble
6 | MTGFKVSSFFYILALSRFFNAGRERACDKLKITVTHLYWFIIRKLLLHEVHVHVSRVCNVSFILSPCLFRNFFTLSLHVLYVMYEQALTPEFFRQWWDIIQSK | soluble
7 | MIERLFRLIKPGTRQQMVCFHHAGGSAEYFLPWKTDLPPDTALYAIQLPGHGGRINESLLHNLHQMADVIAQSYVYLPVRDTFFFGHSMGAALAFEVALRLQKAGRGITTLYVSGRLPPHKNTNTDFYRQSDVSILNKITQLGGSTLDYQQPELKDLLLPIFRADFTAIETYQRQCTELLNCSVMACVGEQDTEVSVRQMSEWCQVTKGAFRLQVFPGGHFYLNHAQKRLLAFINQSVAAQQSSKECKEYHDEI | not soluble
8 | MNKPNLENMNPNFPSSPPIDIISPFFPNILVLNSSSSIANAGVTMTAFTAASPNPITKLMLNLFREGNIESESARKPAIVVNAAPSNAFPVSEIASSAASSGDLPLFLSS | soluble
9 | MAHHHHHHSAALEVLFQGPGMAETKLQLFVKASEDGESVGHCPSCQRLFMVLLLKGVPFTLTTVDTRRSPDVLKDFAPGSQLPILLYDSDAKTDTLQIEDFLEETLGPPDFPSLAPRYRESNTAGNDVFHKFSAFIKNPVPAQDEALYQQLLRALARLDSYLRAPLEHELAGEPQLRESRRRFLDGDRLTLADCSLLPKLHIVDTVCAHFRQAPIPAELRGVRRYLDSAMQEKEFKYTCPHSAEILAAYR | soluble
10 | MSLLRIEPDLSHFKAGTYRFTPQMTVREMLKLLESGKEAQFPLRLVEGMRLSDYLKQLREAPYIKHTLSDDKYATVAQALELENPEWIEGWFWPDTWMYTANTTDVALLKRAHKKMVKAVDSAWEGRADGLPYKDKNQLVTMASIIEKETAVASERDQVASVFINRLRIGMRLQTDPTVIYGMGERYNGKLSRADLETPTAYNTYTITGLPPGAIATPGADSLKAAAHPAKTPYLYFVADGKGGHTFNTNLASHNKSVQDYLKVLKEKNAQEGHHHHHH | soluble
11 | MVDFYYLPGSSPCRSVIMTAKAVGVELNKKLLNLQAGEHLKPEFLKINPQHTIPTLVDNGFALWESRAIQVYLVEKYGKTDSLYPKCPKKRAVINQRLYFDMGTLYQSFANYYYPQVFAKAPADPEAFKKIEAAFEFLNTFLEGQDYAAGDSLTVADIALVATVSTFEVAKFEISKYANVNRWYENAKKVTPGWEENWAGCLEFKKYFE | soluble
12 | MIEIESLSRKWKNFSLDNLSLKVESGEYFVILGPTGAGKTLFLELIAGFHVPDSGRILLDGKDVTDLSPEKHDIAFVYQNYSLFPHMNVKKNLEFGMRMKKIKDPKRVLDTARDLKIEHLLDRNPLTLSGGEQQRVALARALVTNPKILLLDEPLSALDPRTQENAREMLSVLHKKNKLTVLHITHDQTEARIMADRIAVVMDGKLIQVGKPEEIFEKPVEGRVASFVGFENVLKGRVISAEQGLLRIRVGEVVIDAAGDMEVGDQVYAFLRPENIALSKSSTQSSIRNSLQGRVTEAWVLGALVRVKVDCGVPLNVLITRRSAEEMELSPGVQIYARFKASSVHVLR | soluble
13 | GAASEAEYGKVSKAWTLHADGSQEYRSSMELTLFTHTAMNSTYGESFIVYNPDFQTLKIHSSYTRQKDGTIVKTPDNAFVEVLPRFAADAPAYNQLKEMVVVHTGLELGATIYLDYSIITKPGYYPALDINERLQETSPVKECKVSISVPEGTPLACGLYGSPVKAVEESHDGIKEVHWTLRNIPASSREAFQPKNREASPHLVASTYPSGKAALATLDKRLKESQGYESKTFAQFLTDKSGNEQEKVNIIRDHILNNLSTCPIPMAMTGYTVRDIDTVLRSAYGTPLEIAQLLNVMLNAAGIPSEVLAVYPGHLDTDACGLAAIQTLAVKATVDGKDQYLSASPLTNRGGLDKVVSLSGTSIEIETTPIQIKESRSVAISADQAKDGFAICVLPAISAGIDSWGMSALNSKRSNLFELPSLIREEVTYTVTPAEGMKLQTSTQEQVISKPFGKVTRTITPRGNTIEVVRTIELNKQQFTPAEYSDVRSLIHEWTNPDNRVLLFSL | soluble
14 | MGSDKIHHHHHHMQKRHKDRQCYFNELANTSRSFYIDYVKQFISLSPSTHILEIGCGEGGNLLPFAELGCKVTGIDRAASRIHQAETFFTASGYKGEFTTTDFFNFSSASRYQLILIHDVIEHISNKEEFFRCLSPLLAKRGIIFWGFPSWQMPFGGHQQICHNRFVSSLPFIHLCPGILYRFLLRCFHETPSCIEELSDIKRCRMTIDTFEQLAEKYGYEITDRQLWFINPHYQQKFHLRPRKLYPVLAQLKYIRNYFSTSCFYITRHRELHD | not soluble
15 | SLRFLGEKAAAKRQVLNADSVEQSFVGLKQLISCRNWRAAVDLCGRLLTAHGQGYGKSGLLTSHTTDSLQLWFVRLALLVKLGLFQNAEMEFEPFGNLDQPDLYYEYYPHVYPGRRGSMVPFSMRILHAELQQYLGNPQESLDRLHKVKTVCSKILANLEQGLAEDGGMSSVTQEGRQASIRLWRSRLGRVMYSMANCLLLMKDYVLAVEAYHSVIKYYPEQEPQLLSGIGRISLQIGDIKTAEKYFQDVEKVTQKLDGLQGKIMVLMNSAFLHLGQNNFAEAHRFFTEILRMDPRNAVANNNAAVCLLYLGKLKDSLRQLEAMVQQDPRHYLHESVLFNLTTMYELESSRSMQKKQALLEAVAGKEGDSFNTQCLKLA | not soluble
16 | METKSLICTACPRGCRLSVKIENENISVSGNKCPKGLSYGKTEAVCPMRILTSTIASSVEGFPRLPVKTSVEVPLKNFSEYMHLIRKLKADSSKMPGDIIVKNFAESGADLIAAGGSLLEHHHHHH | soluble
17 | MSLTRRNDAIAVVVTEPQNRLFVDPFFDRHLRGIRQELVRQGAQLVLLLIEEPDDYPRVGNFLGGGHVDGALLFSLRGDDPLPEMVDRMGLPAVFGGRPVLSPEDRGHRYTYVDADNRGGAREAVRHLVAQGRERIATITGPLNQAAAVDRLDGYRDVLPDSAPDLIVEGDFTLRGGVDAMAELLARCPDLDAVFAASDLMACGALRVLKEHGRRVPEDVAVIGFDDLPPLVETTEPSLTTVHQDIEGMGRLMARLLFERIPATPLDDGDHSLHRVITPTRLILRKTAEGHHHHHH | not soluble
18 | MGHHHHHHSHMNFIKDNSRALIQRMGMTVIKQITDDLFVWNVLNREEVNIICCEKVEQDAARGIIHMILKKGSESCNLFLKSLKEWNYPLFQDLNGQSLFHQ | not soluble
19 | MSLGTVHARSLEPLPASGPDFGALGEEAEFVEVEPEAKQEILENKDVVVQHVHFDGLGRTKDDIIMYEIRDVFKAKNLIEVMRKSHEAREKLLRLGIFRQVDVLIDTCQGDDALPNGLDVTFEVTELRRLTGSYNTMVGNNEGSMVLGLKLPNLLGRAEKVTFQFSYGTKETSYGLSFFKPQPGNFDRNFSVNLYKVTGQFPWSSLRETDRGVSAEYSFPTWKTSHTVKWEGVWRELGCLSRVASFAVRKESGHSLKSSLSHSMVIDSRNSSILPKRGALLKVNQELAGYTGGDVSFLKEDFELQLNKQLILDTVFSASLWGGMLVPMGDKPSSIADRFYLGGPTSVRGFSMHSVGPQSEGDYLGGEAYWAGGLHLYTPLPFRPGQGGFGELFRTHFFLNAGNLCNLNYGEGPKAHIRKLAECIRWSYGAGIVLRLGNIARLELNYCVPMGVQRGDRICDGVQFGAGIRFLEGHHHHHH | not soluble
20 | MTEHLDVVIVGAGISGVSAAWHLQDRCPTKSYAILEKRESMGGTWDLFRYPGIRSDSDMYTLGFRFRPWTGRQAIADGKPILEYVKSTAAMYGIDRHIRFHHKVISADWSTAENRWTVHIQSHGTLSALTCEFLFLCSGYYNYDEGYSPRFAGSEDFVGPIIHPQHWPEDLDYDAKNIVVIGSGATAVTLVPALADSGAKHVTMLQRSPTYIVSQPDRDGIAEKLNRWLPETMAYTAVRWKNVLRQAAVYSACQKWPRRMRKMFLSLIQRQLPEGYDVRKHFGPHYNPWDQRLCLVPNGDLFRAIRHGKVEVVTDTIERFTATGIRLNSGRELPADIIITATGLNLQLFGGATATIDGQQVDITTTMAYKGMMLSGIPNMAYTVGYTNASWTLKADLVSEFVCRLLNYMDDNGFDTVVVERPGSDVEERPFMEFTPGYVLRSLDELPKQGSRTPWRLNQNYLRDIRLIRRGKIDDEGLRFAKRPAPVGV | soluble
